Assay results published in patent publication US20070054863A1 (SANFORD BURNHAM MEDICAL RESEARCH INSTITUTE, published 2007).
[ ]: non-standard residue; d: D form. The star is where a group is joined. FITC = O=C1OC2(c3ccc(O)cc3Oc3cc(O)ccc32)c2ccc(NC(=S)*)cc21; Ahx = NCCCCCC(=O)O

What was measured:
[1] = biological target: T1, GST-Bcl-2 (UniProt P08515 1-218 = GST; P10415 1-218); experiment: circular dichroism of GST-Bcl-2 with peptide, non-linear regression, one-site-binding model
T1 construct: Bacterially expressed, purified GST fusion used in FP, CD and in vitro immunoprecipitation; also called purified GST-Bcl-2 protein; bacterially expressed Bcl-2
T1 sequence (P08515 1-218, tags or fused parts left off): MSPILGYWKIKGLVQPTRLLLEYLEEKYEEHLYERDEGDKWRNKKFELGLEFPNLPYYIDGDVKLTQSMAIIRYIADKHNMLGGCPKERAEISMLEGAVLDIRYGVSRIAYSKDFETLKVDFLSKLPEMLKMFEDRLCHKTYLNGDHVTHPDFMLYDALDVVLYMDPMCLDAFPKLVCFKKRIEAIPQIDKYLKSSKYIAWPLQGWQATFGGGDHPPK
Procedure: We then explored whether the Bcl-2 conformational change by Bcl-2 was a direct consequence of Nur77 binding. Experiments were performed to determine whether NuBCPs could induce a conformational change of bacterially expressed Bcl-2. To this end, the ability of purified GST-Bcl-2 protein to react with anti-Bcl-2/BH3 antibody in the presence of NuBCP was analyzed by immunoprecipitation assay. […] In contrast, NuBCP-9, D-NuBCP-9 and NuBCP-9/AA had no effect on CD spectra for GST or Bcl-XL (FIGS. 9-11). Thus, the NuBCP-induced Bcl-2 conformational change observed in cells can be accounted for by direct binding of NuBCPs to Bcl-2.
Circular dichroism (CD) spectroscopy. Stock solutions of 3 mM peptide in 30% acetonitrile/water were added to 0.5 mL of 2 μM purified GST-proteins in PBS, pH 7.6. CD spectra were obtained in a 0.2 cm pathlength cell at 20° C. using an AVIV 62 DS spectropolarimeter for a wavelength range from 200 to 260 nm with a step size of 1 nm averaged for 5 sec. Three spectra were corrected for background and averaged for each sample. The Kd was determined using nonlinear regression analysis for a one-site-binding model (χ2>0.98). Stoichiometry was determined from a […] (Jones, G. et al. 2002 Tet. Let. 43 :6079-6082).

[2] = biological target: T2, Bcl-2 (UniProt P10415 1-239); experiment: immunoprecipitation
T2 construct: Cellular Bcl-2 in co-immunoprecipitation and immunostaining assays; also called endogenous Bcl-2
T2 sequence (P10415 whole entry): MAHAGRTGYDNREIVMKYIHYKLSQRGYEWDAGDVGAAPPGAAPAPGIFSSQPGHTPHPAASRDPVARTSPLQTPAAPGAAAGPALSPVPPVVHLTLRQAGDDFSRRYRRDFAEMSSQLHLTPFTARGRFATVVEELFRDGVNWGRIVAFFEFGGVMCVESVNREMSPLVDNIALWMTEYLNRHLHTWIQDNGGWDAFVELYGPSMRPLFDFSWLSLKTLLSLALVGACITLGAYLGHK

[3] = biological target: T2, Bcl-2; experiment: not described at this place
[4] = biological target: T3, Nur77 (Homo sapiens (Human), UniProt P22736 1-598); experiment: not described
T3 construct: also called TR3; NGFI-B

[5] = biological target: T4, GST (UniProt P08515 1-218 = GST); experiment: fluorescence polarization
T4 construct: Control protein in FP and CD assays; also called GST protein
T4 sequence (P08515 whole entry): as the sequence (P08515 1-218, tags or fused parts left off) above
Procedure: (§1) Fluorescence polarization (FP) analysis was used to determine whether NuBCPs interacted directly with Bcl-2. […] GST-Bcl-2, but not GST-Bcl-XL or GST, induced a concentration-dependent FP of FITC-NuBCP-9-r8 and FITC-D-NuBCP-9-r8, while FITC-NuBCP-9/AA-r8 was little affected (FIG. 2C-E). […] Thus, NuBCP-9 and D-NuBCP-9 bind directly and competitively to Bcl-2.
(§2) Fluorescence polarization (FP) assays. GST-Bcl-2, GST-Bcl-XL, or GST protein was briefly incubated with FITC-conjugated peptide with or without competitors in Greiner Fluotrac 600 96-well microplates. Fluorescence polarization was recorded using an Analyst HT 96-384 microplate reader (Molecular Devices, Sunnyvale, Calif.) with excitation wavelength set at 485 nm and dynamic polarizer for emission at 530 nm.

[6] = biological target: T5, GST-Bcl-XL (UniProt P08515 1-218 = GST; Q07817 1-211); experiment: fluorescence polarization
T5 construct: Control protein in FP and CD assays
T5 sequence (P08515 1-218, tags or fused parts left off): as above
Procedure: as §1, §2

[7] = biological target: T1, GST-Bcl-2; experiment: fluorescence polarization competition
Procedure: as §1, §2

B1: NuBCP-9 (unconjugated) (peptide)
peptide: Ac-FSRSLHSLL-NH2
With B1 the Kd [1] was 2100 nM.

B2: NuBCP-20-r8 (peptide)
peptide: GDWIDSILAFSRSLHSLLVDKKCXRRRRRRRR
modifications: not fully specified; N-terminal acetyl; C-terminal Cys thiol linked to chloroacetylated 6-aminohexanoyl (X); eight D-arginines (r8)
notes: also called NuBCP-20-r8-peptide; TR3 peptide
B2: binds [2].

B3: Nur77 fragment DC-3 (other)
chain: GLVLHRLQCARGFGDWIDSILAFSRSLHSLLVDVPAFACLSALVLITDRHGLQEPRRVEELQNRIASCLKEHVAAVAGEPQPASCLSRLLGKLPELRTLCTQGLQRIFYLKLEDLVPPPPIIDKIFMDTLPF
B3: binds [3].

B4: Bcl-B (other, UniProt Q9HD36 1-204, looked up)
chain: MVDQLRERTTMADPLRERTELLLADYLGYCAREPGTPEPAPSTPEAAVLRSAAARLRQIHRSFFSAYLGYPGNRFELVALMADSVLSDSPGPTWGRVVTLVTFAGTLLERGPLVTARWKKWGFQPRLKEQEGDVARDCQRLVALLSSRLMGQHRAWLQAQGGWDGFCHFFRTPFPLAFWRKQLVQAFLSCLLTTAFIYLWTRLL
B4: binds [4].

B5: Bfl-1 (other, UniProt Q16548 1-175, looked up)
chain: MTDCEFGYIYRLAQDYLQCVLQIPQPGSGPSKTSRVLQNVAFSVQKEVEKNLKSCLDNVNVVSVDTARTLFNQVMEKEFEDGIINWGRIVTIFAFEGILIKKLLRQQIAPDVDTYKEISYFVAEFIMNNTGEWIRQNGGWENGFVKKFEPKSGWMTFLEVTGKICEMLSLLKQYC
B5: binds [4].

B6: FITC-NuBCP-9-r8 (peptide)
peptide: {FITC}-FSRSLHSLLG[Ahx][dR][dR][dR][dR][dR][dR][dR][dR]-NH2
modifications: not fully specified
notes: The point of attachment of FITC is not described beyond the name; also called FITC-L-NuBCP-9-r8
B6: no binding [5]; no binding [6].

B7: NuBCP-9/AA (unconjugated) (peptide)
peptide: Ac-ASRSLHSLA-NH2
notes: Unconjugated form
B7: no binding [7].
